Values joined by “and” are separate entries in the source; they are usually repeats but may differ in a detail not shown here. Identical values can stand only once.
Experiments:
[1] = target: rKgp: mature recombinant Kgp catalytic domain with the ABM1 motif (Gly681-Ala710) deleted (Porphyromonas gingivalis W50); assay: enzyme inhibition kinetics
[2] = target: rKgp: mature recombinant Kgp catalytic domain with the ABM1 motif (Gly681-Ala710) deleted (Porphyromonas gingivalis W50)
SEC = target: the molecule itself; assay: SEC

recombinant Kgp propeptide (thrombin-cleaved; used as DTT-stabilised monomer in the inhibition assays) (from UniProt Q51817 20-228) (domain or fragment)
Ki [1]: 2010 nM and 2040 nM

iodoacetylated Kgp propeptide monomer (from UniProt Q51817 20-228) (domain or fragment)
inhibition of rKgp by the iodoacetylated monomer (100 mg/L), substrate DQ-BSA [2]: 28 % inhibition

B1: recombinant Kgp propeptide (thrombin-cleaved; used as DTT-stabilised monomer in the inhibition assays) (domain or fragment)
chain: QSAKIKLDAPTTRTTCTNNSFKQFDASFSFNEVELTKVETKGGTFASVSIPGAFPTGEVGSPEVPAVRKLIAVPVGATPVVRVKSFTEQVYSLNQYGSEKLMPHQPSMSKSDDPEKVPFVYNAAAYARKGFVGQELTQVEMLGTMRGVRIAALTINPVQYDVVANQLKVRNNIEIEVSFQGADEVATQRLYDASFSPYFETAYKQLFNR
stoichiometry N (SEC): 2

From PMC3677877 (PLoS ONE, 2013)
